# T1: partial-length periostin (R4 region) (Homo sapiens (Human), UniProt Q15063 496-631, limits assumed)
# T1 sequence: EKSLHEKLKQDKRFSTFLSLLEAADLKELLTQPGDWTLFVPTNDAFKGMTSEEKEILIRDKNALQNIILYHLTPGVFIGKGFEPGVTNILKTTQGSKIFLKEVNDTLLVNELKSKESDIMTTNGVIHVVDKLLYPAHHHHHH
# T2: partial-length periostin (EMI region) (Homo sapiens (Human), UniProt Q15063 22-110, limits assumed)
# T2 sequence: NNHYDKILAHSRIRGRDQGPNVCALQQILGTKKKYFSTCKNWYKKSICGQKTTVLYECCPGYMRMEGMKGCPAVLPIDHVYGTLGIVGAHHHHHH
# T3: partial-length periostin (C-terminal region) (Homo sapiens (Human), UniProt Q15063 632-836, limits assumed)
# T3 sequence: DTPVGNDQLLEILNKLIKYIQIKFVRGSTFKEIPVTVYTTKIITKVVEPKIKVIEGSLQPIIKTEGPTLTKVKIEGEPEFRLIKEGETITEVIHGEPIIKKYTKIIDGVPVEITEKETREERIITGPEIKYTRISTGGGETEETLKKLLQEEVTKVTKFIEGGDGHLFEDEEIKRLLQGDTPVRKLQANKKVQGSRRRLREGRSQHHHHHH
# T4: partial-length periostin (R2 region) (Homo sapiens (Human), UniProt Q15063 235-378, limits assumed)
# T4 sequence: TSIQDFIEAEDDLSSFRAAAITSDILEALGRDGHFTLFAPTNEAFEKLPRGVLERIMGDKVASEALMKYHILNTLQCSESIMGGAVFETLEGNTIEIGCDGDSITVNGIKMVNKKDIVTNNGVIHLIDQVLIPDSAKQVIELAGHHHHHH
# T5: partial-length periostin (R1/R2 regions) (Homo sapiens (Human), UniProt Q15063 111-378, limits assumed)
# T5 sequence: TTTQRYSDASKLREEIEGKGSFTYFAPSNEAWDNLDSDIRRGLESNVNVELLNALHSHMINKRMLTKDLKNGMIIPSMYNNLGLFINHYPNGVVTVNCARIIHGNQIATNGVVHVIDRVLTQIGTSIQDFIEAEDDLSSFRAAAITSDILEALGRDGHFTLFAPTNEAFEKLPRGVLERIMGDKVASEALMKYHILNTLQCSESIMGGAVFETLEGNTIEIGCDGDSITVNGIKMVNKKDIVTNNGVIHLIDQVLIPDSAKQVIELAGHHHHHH
# T6: periostin (S2 recombinant periostin protein tagged with V5/His) (Homo sapiens (Human), UniProt Q15063 22-836, limits assumed)
# T6 construct: also called osteoblastic specific factor 2; OSF2
# T6 sequence: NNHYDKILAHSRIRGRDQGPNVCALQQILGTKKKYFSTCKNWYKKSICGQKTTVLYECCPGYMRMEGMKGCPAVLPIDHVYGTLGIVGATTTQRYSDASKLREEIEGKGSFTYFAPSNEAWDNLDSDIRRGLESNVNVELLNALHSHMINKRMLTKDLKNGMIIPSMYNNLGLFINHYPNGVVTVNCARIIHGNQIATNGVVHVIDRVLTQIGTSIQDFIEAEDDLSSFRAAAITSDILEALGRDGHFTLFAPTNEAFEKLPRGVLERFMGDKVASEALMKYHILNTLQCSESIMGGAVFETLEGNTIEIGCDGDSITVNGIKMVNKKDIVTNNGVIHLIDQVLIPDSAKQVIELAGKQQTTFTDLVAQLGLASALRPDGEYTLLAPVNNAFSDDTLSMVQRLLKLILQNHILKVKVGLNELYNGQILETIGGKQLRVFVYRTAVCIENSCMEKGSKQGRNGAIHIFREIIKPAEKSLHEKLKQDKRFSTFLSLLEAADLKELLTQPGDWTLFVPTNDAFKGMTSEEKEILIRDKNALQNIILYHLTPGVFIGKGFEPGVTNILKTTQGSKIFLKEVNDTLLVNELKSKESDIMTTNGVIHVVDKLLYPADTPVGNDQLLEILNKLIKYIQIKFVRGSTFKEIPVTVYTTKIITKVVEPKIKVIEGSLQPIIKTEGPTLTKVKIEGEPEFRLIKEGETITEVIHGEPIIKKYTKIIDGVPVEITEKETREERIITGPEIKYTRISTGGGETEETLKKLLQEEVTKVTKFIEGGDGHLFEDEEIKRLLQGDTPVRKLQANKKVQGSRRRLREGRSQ
# Assays:
# [1] = molecular target: T1, partial-length periostin (R4 region); assay: ELISA on immobilized antigen, POD-labeled anti-mouse IgG, A405
# [2] = molecular target: T2, partial-length periostin (EMI region); assay: as above
# [3] = molecular target: T3, partial-length periostin (C-terminal …); assay: as above
# [4] = molecular target: T4, partial-length periostin (R2 region); assay: as above
# [5] = molecular target: T5, partial-length periostin (R1/R2 regions); assay: as above
# [6] = molecular target: T6, periostin (S2 recombinant periostin …); assay: ELISA on immobilized antigen (5 ug/mL), A405; bound if difference to control well is 0.2 or more
# Method: (8) Subsequently, the absorbance in each well of the microtiter plate in (7) at 405 nm was measured with a spectrophotometer.
# Based on the measurement results of the absorbance, if the difference between the obtained measured values of absorbance in the well immobilizing periostin or a partial-length periostin and the measured values of absorbance in the control well (into which phosphate-buffered saline was poured instead of periostin or partial-length periostins) is 0.2 or more, an anti-periostin monoclonal antibody was determined to have bound to the periostin or the partial-length periostin immobilized to the well of the microtiter plate.
binder,measurement,setting,value
"anti-periostin monoclonal antibody (SS19D) (antibody, V domains shown) VH: QVQLQQPGSELVKPGASVKLSCKASGYTFTSYWMHWVKQSPGQGLEWIGEINPSNGRTNYNEKFKTKATLTVDKSSSTAYMQLNSLTSEDSAVYYCVRGDEGFAYWGQGTLVTVSA VL: NIVLTQSPASLAVSLGQRATISCSASESVDSYGRSFIHWFQQKPGQPPKLLIYLASYLESGVPARFSGSGSRTDFTLTIDPVEADDAATYYCHQNNEDPPTFGGGAKLEIKR",binding result,[1],no binding
same,binding result,[2],no binding
same,binding result,[3],no binding
same,binding result,[4],no binding
same,binding result,[5],no binding
same,binding result,[6],binds

# Reference: patent publication US20140308685A1 (SHINO TEST, published 2014)
